Measured values: patent publication US10702610B2, “Method of making sulfur-containing polymers from hexahydrotriazine and dithiol precursors” (International Business Machines Corporation, priority 2015, dated 2020)
No end group written: not given here.

Assays:
[1] = dissolution in simulated physiological environment (10% prenatal bovine serum in phosphate-buffered saline), precipitation/aggregation; type: physicochemical; details: over 24 hours
Method: (§1) To investigate toxicity of the polymer-peptide product, the polymer-peptide product was dissolved in a simulated physiological environment comprising 10% prenatal bovine serum in a phosphate-buffered saline solution. […] The polymer-peptide products was also incubated with human embryonic kidney cells from cell line HEK293 for 24 hours, after which more than 90% cell viability was observed.

[2] = test system: human embryonic kidney cells from cell line HEK293; assay: incubation with HEK293 cells, cell viability; type: cell-based
Method: as §1

[3] = hemolysis; type: cell-based; details: doses up to 1000 mg/L
Method: as §1

For “polymer-peptide product: peptide SEQ. ID: NO: 1-NH2 attached to water-soluble polythioaminal polymer 4a (CLLKKLLKKC-NH2; cysteine pairing not given here; also: attached to polythioaminal polymer 4a)”, the “precipitation or aggregation in solution” value [1] was “No precipitation or aggregation was observed”, the cell viability ([2]; HEK293, 200 mg/L, similar incubation period) was “more than 80%” and the cell viability ([2]; HEK293, incubated 24 hours, dose not stated) was “more than 90%”. The hemolysis [3] was “No hemolysis was observed”.

For “peptide: thiol-containing amphiphilic alpha-helical peptide SEQ. ID: NO: 1-NH2 (CLLKKLLKKC-NH2; cysteine pairing not given here) [reference compound]”, the cell viability ([2]; HEK293, dose of 50 mg/L) was “below 70%”.
